IntAct's records for PubMed 21441902

B1: mRNA export factor GLE1 (Saccharomyces cerevisiae), Q12315 (parent)
chain: MRFVFDEVFNSDTDSPEFEETCSTTSSTSSQCPTPEPSPAIKLPSFTKVGTKKLVNESVVILDPALENALRDLNLQSKLIPINEPIVAASSIIVPHSTNMPLPRASHSSLLDNAKNSNATAPLLEAIEESFQRKMQNLVLANQKEIQSIRENKRRVEEQRKRKEEEERKRKEAEEKAKREQELLRQKKDEEERKRKEAEAKLAQQKQEEERKKIEEQNEKERQLKKEHEAKLLQQKDKLGKAVTNFDKISKMFWHYKDKIAQIKQDIVLPIKKADVNVRNLLSRHKRKINPKFGQLTNSNQQLFKIQNELTQLINDTKGDSLAYHWILNFIAKAVVHQAETEVRVKPESALPLGKLTLYLLVQFPELQELFMARLVKKCPFVIGFTCEIDTEKGRQNMGWKRNNENKWEDNTSYDERMGGILSLFAIITRLQLPQEFITTTSHPFPIALSWHILARICNTPLNLITNTHFVILGSWWDAAAVQFLQAYGNQASKLLILIGEELTSRMAEKKYVGAARLRILLEAWQNNNMESFPEMSP
partner: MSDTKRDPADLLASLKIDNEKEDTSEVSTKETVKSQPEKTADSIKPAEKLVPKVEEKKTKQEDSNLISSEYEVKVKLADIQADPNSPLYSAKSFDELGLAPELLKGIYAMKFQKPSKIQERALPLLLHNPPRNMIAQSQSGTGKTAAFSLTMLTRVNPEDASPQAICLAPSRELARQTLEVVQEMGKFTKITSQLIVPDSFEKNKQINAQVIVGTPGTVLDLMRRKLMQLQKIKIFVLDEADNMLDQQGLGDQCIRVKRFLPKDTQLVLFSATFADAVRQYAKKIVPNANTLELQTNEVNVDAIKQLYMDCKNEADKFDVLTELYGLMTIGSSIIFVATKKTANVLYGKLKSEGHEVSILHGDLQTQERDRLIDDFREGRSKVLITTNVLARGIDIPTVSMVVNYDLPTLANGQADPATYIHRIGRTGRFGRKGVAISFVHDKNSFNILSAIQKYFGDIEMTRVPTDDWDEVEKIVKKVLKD
B2: ATP-dependent RNA helicase DBP5 (Saccharomyces cerevisiae), P20449 (parent)
chain: B1 partner
partner: B1 chain

Variants of: B1
Conditions: with dbp5_yeast DBP5, P20449

| effect of a mutation on the interaction | Variant |
| --- | --- |
| disrupting interaction | V513D;A516D;I520D |

Variants of: B2
Conditions: with gle1_yeast GLE1, Q12315

| effect of a mutation on the interaction | Variant |
| --- | --- |
| disrupting interaction | L327V;K477A;K481A |
